These results are taken from paper PMC8091058, “Distinct intramolecular interactions regulate autoinhibition of vinculin binding in αT-catenin and αE-catenin” (The Journal of Biological Chemistry, 2021).

The chains are these.
B4: β-catenin (natural protein, Mus musculus, UniProt Q02248 1-781, looked up)
chain: MATQADLMELDMAMEPDRKAAVSHWQQQSYLDSGIHSGATTTAPSLSGKGNPEEEDVDTSQVLYEWEQGFSQSFTQEQVADIDGQYAMTRAQRVRAAMFPETLDEGMQIPSTQFDAAHPTNVQRLAEPSQMLKHAVVNLINYQDDAELATRAIPELTKLLNDEDQVVVNKAAVMVHQLSKKEASRHAIMRSPQMVSAIVRTMQNTNDVETARCTAGTLHNLSHHREGLLAIFKSGGIPALVKMLGSPVDSVLFYAITTLHNLLLHQEGAKMAVRLAGGLQKMVALLNKTNVKFLAITTDCLQILAYGNQESKLIILASGGPQALVNIMRTYTYEKLLWTTSRVLKVLSVCSSNKPAIVEAGGMQALGLHLTDPSQRLVQNCLWTLRNLSDAATKQEGMEGLLGTLVQLLGSDDINVVTCAAGILSNLTCNNYKNKMMVCQVGGIEALVRTVLRAGDREDITEPAICALRHLTSRHQEAEMAQNAVRLHYGLPVVVKLLHPPSHWPLIKATVGLIRNLALCPANHAPLREQGAIPRLVQLLVRAHQDTQRRTSMGGTQQQFVEGVRMEEIVEGCTGALHILARDVHNRIVIRGLNTIPLFVQLLYSPIENIQRVAAGVLCELAQDKEAAEAIEAEGATAPLTELLHSRNEGVATYAAAVLFRMSEDKPQDYKKRLSVELTSSLFRTEPMAWNETADLGLDIGAQGEALGYRQDDPSYRSFHSGGYGQDALGMDPMMEHEMGGHHPGADYPVDGLPDLGHAQDLMDGLPPGDSNQLAWFDTDL
notes: β-catenin, Mus musculus, full length; in pGEX-TEV; source: E. coli BL21-Gold, purified (glutathione-agarose, TEV cleavage, Mono Q or Mono S, S200)
B5: αT-catenin head region (aa 1–659) (domain or fragment, Mus musculus, UniProt Q65CL1 1-659, looked up)
chain: MSAETPITLNMDTQDLQIQTFTVEKLLEPLIIQVTTLVNCPQNPSNRKKGRSKRARVLLASVEEATWNLLDKGEMIAKEATVLKEELAAALQEVRKESKALKVSAERFTDDPCYLPKREAVVQAARALLAAVTRLLVLADMIDVMCLLQHVSSFQRTFESLKNVSNKSDLQRTYQKLGKELESLDYLAFKRQQDLKSPSQRDEIAGARATLKENSPLLHSICSACLEHSDVASLKASKDTVCEEIQNALDVISNASQGIQNAPAPPEPQAATLGSAFDELENLIVLNPLTVTEEDVRPSLEKRLEAIISGAALLADSSCTRDLHRERIIAECNAIRQALQDLLTEYMSNTGKTERSNTLNTAIVNMSKKTRDLRRQLRKAIIDHISDSFLDTTVPLLVLIEAAKNGRVKEIKDYAAIFHEHTGRLVEVANLACSMSTNEDGIKIVRIAANHLETLCPQIINAALALASRPKSQVVKNTMEMYKRTWEHYIHVLTEAVDDITSIDDFLAVSESHILEDVNKCIIALRDQDADNLDRAAGAIRGRAARVAHIVAGEMDSYEPGAYTEGVMRNVNFLTSTVIPEFVTQVNVALDALSKNSLTALDDNQFVDISKKIYDTIHDIRCSVMMIRTPEELEDVSDLEDDHEVRSHTSIQTEGKTDR
notes: αT-catenin, Mus musculus, head region (N- and M-domains), aa 1-659; in pGEX-TEV; also called αT-catenin head (1–659); αT-catenin N1-M3 (aa 1–659); source: E. coli BL21-Gold, purified (glutathione-agarose, TEV cleavage, Mono Q or Mono S, S200)

The target of data set [1] is T1, vinculin D1 (Mus musculus, UniProt Q64727).
T1 chain: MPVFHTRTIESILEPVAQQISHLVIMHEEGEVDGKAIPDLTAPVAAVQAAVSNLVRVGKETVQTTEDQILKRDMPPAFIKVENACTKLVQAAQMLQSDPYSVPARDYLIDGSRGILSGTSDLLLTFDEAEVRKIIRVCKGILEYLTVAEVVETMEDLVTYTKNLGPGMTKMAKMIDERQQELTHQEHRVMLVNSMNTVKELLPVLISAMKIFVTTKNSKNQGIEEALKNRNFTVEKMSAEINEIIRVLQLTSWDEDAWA
Put plainly: ITC. A general note: In ITC the heat of successive injections is recorded.

Data set [2] concerns the molecule itself. Description: SEC; analytical SEC of 30 μM protein.
Data set [3] addresses T2, β-catenin–N-cadherin cytoplasmic tail complex (Mus musculus | , UniProt Q02248 1-781; P15116 746-906).
T2 construct: β-catenin, Mus musculus, full length; N-cadherin cytoplasmic tail (Ncad_(cyto)); the methods name no plasmid for the N-cadherin tail; also called β-catenin–Ncad_(cyto); β-cat–Ncad_(cyto); source: β-catenin: E. coli BL21-Gold, purified
T2 sequence (looked up) 1: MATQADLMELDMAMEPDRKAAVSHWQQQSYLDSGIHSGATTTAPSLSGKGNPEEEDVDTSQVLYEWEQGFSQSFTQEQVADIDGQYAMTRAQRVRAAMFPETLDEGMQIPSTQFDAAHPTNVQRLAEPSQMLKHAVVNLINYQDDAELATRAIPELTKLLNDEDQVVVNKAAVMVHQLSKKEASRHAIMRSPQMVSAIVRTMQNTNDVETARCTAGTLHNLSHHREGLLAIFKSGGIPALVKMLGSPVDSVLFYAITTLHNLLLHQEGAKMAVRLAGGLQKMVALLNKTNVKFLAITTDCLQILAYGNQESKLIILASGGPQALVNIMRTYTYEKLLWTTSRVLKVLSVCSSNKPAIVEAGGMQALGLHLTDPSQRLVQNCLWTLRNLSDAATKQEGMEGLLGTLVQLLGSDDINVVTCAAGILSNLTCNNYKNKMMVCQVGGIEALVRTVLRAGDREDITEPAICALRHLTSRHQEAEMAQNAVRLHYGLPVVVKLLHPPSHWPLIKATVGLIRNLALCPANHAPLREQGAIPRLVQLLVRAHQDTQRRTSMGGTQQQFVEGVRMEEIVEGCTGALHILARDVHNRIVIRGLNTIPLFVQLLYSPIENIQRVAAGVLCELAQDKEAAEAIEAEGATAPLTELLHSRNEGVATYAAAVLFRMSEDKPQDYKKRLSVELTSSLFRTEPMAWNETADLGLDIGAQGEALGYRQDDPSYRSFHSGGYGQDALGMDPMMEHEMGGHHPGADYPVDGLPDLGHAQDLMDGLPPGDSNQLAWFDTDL
T2 sequence (looked up) 2: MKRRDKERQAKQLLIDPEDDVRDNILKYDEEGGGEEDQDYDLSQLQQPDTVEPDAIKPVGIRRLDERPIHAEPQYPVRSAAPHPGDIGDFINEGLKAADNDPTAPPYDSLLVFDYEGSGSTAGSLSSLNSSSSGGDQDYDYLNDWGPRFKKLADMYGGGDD
Description: ITC; β-catenin (110-150 μM) or β-catenin–Ncad_(cyto) complex (103-158 μM) injected into αT-catenin fragment in the cell; 25 °C; 20 mM Hepes pH 8.0, 150 mM NaCl, 1 mM TCEP. As to conditions: both partners purified.

Data set [4] deals with B5. Described as above. The note with it: both partners purified.
For data set [5], the target named is B4. The data set is described as above. The note with it: both partners purified.

B1: 2I27–αT-catenin M1-M3–2I27 259-667 (protein)
chain: IQNAPAPPEPQAATLGSAFDELENLIVLNPLTVTEEDVRPSLEKRLEAIISGAALLADSSCTRDLHRERIIAECNAIRQALQDLLTEYMSNTGKTERSNTLNTAIVNMSKKTRDLRRQLRKAIIDHISDSFLDTTVPLLVLIEAAKNGRVKEIKDYAAIFHEHTGRLVEVANLACSMSTNEDGIKIVRIAANHLETLCPQIINAALALASRPKSQVVKNTMEMYKRTWEHYIHVLTEAVDDITSIDDFLAVSESHILEDVNKCIIALRDQDADNLDRAAGAIRGRAARVAHIVAGEMDSYEPGAYTEGVMRNVNFLTSTVIPEFVTQVNVALDALSKNSLTALDDNQFVDISKKIYDTIHDIRCSVMMIRTPEELEDVSDLEDDHEVRSHTSIQTEGKTDRAKMTQLPE
modifications: 2I27 fusion at both ends
Broadly, the Kd is the constant that tells how readily two partners part at equilibrium. A high value points to weaker binding. Turning to B1, the Kd in data set [1] is ~250 nM.

B2: αT-catenin V94D N1-N2 (domain or fragment, Mus musculus, UniProt Q65CL1 1-259, looked up)
chain: MSAETPITLNMDTQDLQIQTFTVEKLLEPLIIQVTTLVNCPQNPSNRKKGRSKRARVLLASVEEATWNLLDKGEMIAKEATVLKEELAAALQEDRKESKALKVSAERFTDDPCYLPKREAVVQAARALLAAVTRLLVLADMIDVMCLLQHVSSFQRTFESLKNVSNKSDLQRTYQKLGKELESLDYLAFKRQQDLKSPSQRDEIAGARATLKENSPLLHSICSACLEHSDVASLKASKDTVCEEIQNALDVISNASQGI
notes: αT-catenin N1-N2 (aa 1-259) with V94D, a point mutation linked to arrhythmogenic ventricular cardiomyopathy in humans; also called V94D mutant; source: E. coli BL21-Gold, purified (glutathione-agarose, TEV cleavage, Mono Q or Mono S, S200)
By stoichiometry N is commonly meant the number of molecules, sites or subunits per partner or assembly. Take B2: in data set [2], the “stoichiometry N” value is 2.

B3: αT-catenin N1-N2 (aa 1–259) (domain or fragment, Mus musculus, UniProt Q65CL1 1-259, looked up)
chain: MSAETPITLNMDTQDLQIQTFTVEKLLEPLIIQVTTLVNCPQNPSNRKKGRSKRARVLLASVEEATWNLLDKGEMIAKEATVLKEELAAALQEVRKESKALKVSAERFTDDPCYLPKREAVVQAARALLAAVTRLLVLADMIDVMCLLQHVSSFQRTFESLKNVSNKSDLQRTYQKLGKELESLDYLAFKRQQDLKSPSQRDEIAGARATLKENSPLLHSICSACLEHSDVASLKASKDTVCEEIQNALDVISNASQGI
notes: αT-catenin, Mus musculus, N1-N2, aa 1-259; in pGEX-TEV; also called αT-catenin WT N1-N2; αT-catenin N1-N2 (1–259); source: E. coli BL21-Gold, purified (glutathione-agarose, TEV cleavage, Mono Q or Mono S, S200)
In data set [3], B3 registered an equilibrium dissociation constant (Kd) of 6.9 ± 12 nM.
Turning to B4, the dH in data set [4] was -14.6 ± 2.1 kcal/mol.
Regarding B5, the Kd stood at 264 ± 109 nM in data set [5] and 5.6 ± 0.6 nM in data set [3].
